How the values were obtained:
[1] = biological target: mCcd1 DIX domain R400A (mouse)
[2] = biological target: mCcd1 DIX domain L402A (mouse)
[3] = biological target: mCcd1 DIX domain D399A (mouse)
[4] = biological target: the molecule itself; experiment: SEC; gel filtration chromatography of the DIX domains without carrier (Figures 1b and 4e)
[5] = biological target: T1, MBP-fused zCcd1 DIX (zebrafish, UniProt Q804T6 356-438); experiment: pull-down; MBP-fused mCcd1, zCcd1 or Dvl1 DIX (0.8 mM) held on amylose resin, Axin DIX or Dvl1 DIX free; pull-down buffer, 277 K (Figures 5f, 5g); conditions: both partners purified
T1 construct: DIX domain of zebrafish Ccd1, cDNA Gene ID 360137; The uncleaved precursor of m2; also called MBP-fused zCcd1 DIX domain; source: E. coli (plasmid pOPINM), purified (amylose resin)
T1 sequence (looked up): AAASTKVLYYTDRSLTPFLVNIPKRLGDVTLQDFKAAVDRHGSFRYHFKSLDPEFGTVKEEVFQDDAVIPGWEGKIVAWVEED

[6] = biological target: T2, mCcd1 DIX domain L402A; experiment: dynamic light scattering; conditions: chain shown with the change;; parent: est. 4.4; read off a plot
T2 chain: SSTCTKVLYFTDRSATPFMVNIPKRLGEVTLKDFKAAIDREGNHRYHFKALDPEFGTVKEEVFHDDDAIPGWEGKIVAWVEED

[7] = biological target: T3, mCcd1 DIX domain W466A; experiment: dynamic light scattering; conditions: chain shown with the change;; parent: est. 4.4; read off a plot
T3 chain: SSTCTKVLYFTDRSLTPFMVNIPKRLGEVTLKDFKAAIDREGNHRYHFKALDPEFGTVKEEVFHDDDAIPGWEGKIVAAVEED

[8] = biological target: T4, mCcd1 DIX domain F397A; experiment: dynamic light scattering; conditions: chain shown with the change;; parent: est. 4.4; read off a plot
T4 chain: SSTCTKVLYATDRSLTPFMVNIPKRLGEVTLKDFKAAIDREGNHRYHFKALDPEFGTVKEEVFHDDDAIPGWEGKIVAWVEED

“mCcd1 DIX domain R400A (domain or fragment)” showed a TCF-dependent transcription (TOPflash luciferase reporter, HeLa cells transfected with FLAG-tagged mCcd1 BalphaL R400A), compared to the wild type [1] of 1.4 fold.

Molecule “mCcd1 DIX domain L402A (domain or fragment)” has a TCF-dependent transcription (TOPflash luciferase reporter, HeLa cells transfected with FLAG-tagged mCcd1 BalphaL L402A), compared to the wild type [2] of 1.5 fold.

Molecule “mCcd1 DIX domain D399A (domain or fragment)” has a TCF-dependent transcription (TOPflash luciferase reporter, HeLa cells transfected with FLAG-tagged mCcd1 BalphaL D399A), compared to the wild type [3] of 1.3 fold.

B1: zebrafish Coiled-coil-DIX1 (zCcd1) DIX domain (domain or fragment, UniProt Q804T6 356-438, looked up)
chain: AAASTKVLYYTDRSLTPFLVNIPKRLGDVTLQDFKAAVDRHGSFRYHFKSLDPEFGTVKEEVFQDDAVIPGWEGKIVAWVEED
notes: DIX domain of zebrafish Coiled-coil-DIX1 (zCcd1), residues 356-438, cDNA Gene ID 360137; also called zCcd DIX domain; Zebrafish CCD1; source: E. coli (plasmid pOPINM), purified (amylose resin, HRV3C cleavage, HiTrap Q)
For B1, the “stoichiometry N” value [4] was 2.

B2: Axin DIX domain (domain or fragment, UniProt O70239 745-827, looked up)
chain: CDSIVVAYYFCGEPIPYRTLVRGRAVTLGQFKELLTKKGSYRYYFKKVSDEFDCGVVFEEVREDEAILPVFEEKIIGKVEKVD
notes: DIX domain of Axin; source: E. coli, expressed as a fusion construct with GST or MBP, purified
B2 was tested, and the “fold binding relative to MBP-fused mCcd1 DIX” value [5] was 1.53 fold.

B3: mouse Coiled-coil-DIX1 (mCcd1) DIX domain L402A (protein)
chain: SSTCTKVLYFTDRSATPFMVNIPKRLGEVTLKDFKAAIDREGNHRYHFKALDPEFGTVKEEVFHDDDAIPGWEGKIVAWVEED
With B3 the other: DLS peak size (diameter) of homopolymer [6] was 7.3 nm.

B4: mouse Coiled-coil-DIX1 (mCcd1) DIX domain W466A (protein)
chain: SSTCTKVLYFTDRSLTPFMVNIPKRLGEVTLKDFKAAIDREGNHRYHFKALDPEFGTVKEEVFHDDDAIPGWEGKIVAAVEED
B4 showed an other: DLS peak size (diameter) of homopolymer [7] of 8.2 nm.

B5: mouse Coiled-coil-DIX1 (mCcd1) DIX domain F397A (protein)
chain: SSTCTKVLYATDRSLTPFMVNIPKRLGEVTLKDFKAAIDREGNHRYHFKALDPEFGTVKEEVFHDDDAIPGWEGKIVAWVEED
In the case of B5, the other: DLS peak size (diameter) of homopolymer [8] is reported as 5.5 nm.

Reference: paper PMC5552852, “Structural basis for Ccd1 auto-inhibition in the Wnt pathway through homomerization of the DIX domain” (Scientific Reports, 2017)
